Here are results for six molecules from PMC4518712, “Regulation of the PI3K pathway through a p85α monomer–homodimer equilibrium” (eLife, 2015).

Several values for one entry are separate records, joined by “and”; a condition that tells them apart may be missing. Equal values may be shown once.

Data set [1] addresses Fyn SH3 (Homo sapiens) (UniProt P06241). The settings on record: cited from earlier work.
The target of data set [2] is GST-ΔSH3 p85α (residues 86–742, comprising PR1 to cSH2). Nature of the data set: ITC; MicroCal ITC200, 25°C, 10 mM sodium phosphate pH 7.5, 150 mM NaCl, 5 mM DTT; PR1 peptide injected into p85α SH3 (100 μM) in the cell, or SH3 (400 μM) in the syringe and GST-ΔSH3 p85α in the cell.
Data set [3] concerns the target class I PXXP peptide. The settings on record: cited from earlier work.
Data set [4] concerns the target p85α SH3-PR1-BH-PR2 fragment (residues 1–333) (UniProt P27986). Description: MST; Alexa647-labelled protein at 20 nM, the same protein unlabelled titrated from 50,000 nM in 1:1 dilutions; 20 mM sodium phosphate pH 8, 150 mM NaCl, 2 mM EDTA, 5 mM DTT; dimerization.
Data set [5] has the same target. Description: AUC; sedimentation equilibrium, 20°C, samples at 1.0, 0.5 and 0.25 mg/ml, 11.8, 12.8, 13.8 krpm; global fit to a monomer–dimer–tetramer model (p85α, 1–333) or a monomer–dimer model (PR1-BH); constant of dimerization (dimer to monomers); reducing conditions.
Data set [6] has as its target T1, p85α SH3 (residues 1–81) (UniProt P27986 1-81).
T1 construct: p85α residues 1–81; pET28b
Nature of the data set: ITC; MicroCal ITC200, 25°C, 10 mM sodium phosphate pH 7.5, 150 mM NaCl, 5 mM DTT; PR1 peptide injected into p85α SH3 (100 μM) in the cell, or SH3 (400 μM) in the syringe and GST-ΔSH3 p85α in the cell. Particulars: both partners purified. (In general: ITC needs no label: the signal is the heat of the interaction.)

Data set [7] deals with the molecule itself. Description: MST; Alexa647-labelled protein at 20 nM, the same protein unlabelled titrated from 50,000 nM in 1:1 dilutions; 20 mM sodium phosphate pH 8, 150 mM NaCl, 2 mM EDTA, 5 mM DTT; dimerization.
Data set [8] deals with the molecule itself. Description: AUC; sedimentation equilibrium, 20°C, samples at 1.0, 0.5 and 0.25 mg/ml, 11.8, 12.8, 13.8 krpm; global fit to a monomer–dimer–tetramer model (p85α, 1–333) or a monomer–dimer model (PR1-BH); constant of dimerization (dimer to monomers); reducing conditions.

T1 sequence (P27986 1-81): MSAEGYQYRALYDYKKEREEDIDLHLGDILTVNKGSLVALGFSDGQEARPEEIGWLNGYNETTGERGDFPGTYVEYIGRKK
Fyn SH3 (Homo sapiens), sequence (P06241 79-146): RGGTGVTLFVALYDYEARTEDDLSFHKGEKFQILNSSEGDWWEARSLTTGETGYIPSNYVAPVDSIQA

Regarding p85α PR1 PR1 (from UniProt P27986), the Kd in data set [1] is 16 µM.
In the case of “p85α SH3 (residues 1–81) (from UniProt P27986 1-81) (domain or fragment)”, in data set [2], the Kd was 16.8 µM, the dH is -3.2 kcal/mol and the stoichiometry N was 0.8.
p85α SH3 SH3 (from UniProt P27986): in data set [3], the Kd is 40 µM.
Turning to “p85α SH3-PR1-BH-PR2 fragment (residues 1–333) (from UniProt P27986 1-333) (domain or fragment)”, the Kd was determined as 0.441 µM in data set [4] and 0.53 µM in data set [5].

B1: synthetic p85α PR1 peptide PKPRPPRPLPVAP (peptide)
peptide: PKPRPPRPLPVAP
notes: p85α PR1 region, begins at P87; source: synthetic peptide
For B1, in data set [6], the Kd is 23.3 µM and 24 µM; the dH was -1.17 kcal/mol; the “stoichiometry N” value was 1.06.

B2: p85α PR1-BH (residues 79–301) (domain or fragment, UniProt P27986 79-301, looked up)
chain: RKKISPPTPKPRPPRPLPVAPGSSKTEADVEQQALTLPDLAEQFAPPDIAPPLLIKLVEAIEKKGLECSTLYRTQSSSNLAELRQLLDCDTPSVDLEMIDVHVLADAFKRYLLDLPNPVIPAAVYSEMISLAPEVQSSEEYIQLLKKLIRSPSIPHQYWLTLQYLLKHFFKLSQTSSKNLLNARVLSEIFSPMLFRFSAASSDNTENLIKVIEILISTEWNER
modifications: Alexa647 label on the labelled copy (MST only)
notes: p85α residues 79–301; pET28b
Turning to B2, the Kd in data set [7] was 22.3 µM and 23 µM; in data set [8], 163 µM.

What is called Kd is the equilibrium constant for the complex coming apart. Usually stoichiometry N stands for the number of molecules, sites or subunits per partner or assembly.
